Data reported in the supplement of paper PMC9732359.
± gives the uncertainty stated by the source.

Experiment: protein stability index of a GFP-peptide fusion (yeast GPS) (PSI 1-4); higher = more stable; sorted into four equal gates, so the index is relative within each strain
Summary of the method: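 Mid-log yeast cultures in leucine-free medium, carrying a pooled plasmid library, were sorted into four equal gates by their GFP/Cherry fluorescence ratio. Each plasmid expressed Cherry along with GFP fused upstream of a tiled 17-residue yeast protein peptide. Plasmids recovered from each gate were PCR-amplified and Illumina-sequenced, with reads assigned to strains by barcodes. The protein stability index was obtained by summing each gate's read frequency weighted by its gate number.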

Row | Sequence | protein stability index (doa10∆) | protein stability index (pdr5∆) | protein stability index (san1∆) | protein stability index (ubr1∆)
1 | SKALNSILESSMFLRID [RGR1] | 2.42 ± 0.16 | 2.67 ± 0.11 | 2.08 ± 0.11 | 2.83 ± 0.082
2 | PTQITQYTQRLSKLEKA [SRP68] | 1.75 ± 0.06 | 2.08 ± 0.045 | 2.06 ± 0.079 | 2.48 ± 0.045
3 | PILAPSVKDYRPAEETE [RPS3] | 3 ± 0.056 | 3.13 ± 0.051 | 3.174 ± 0.03 | 2.92 ± 0.04
4 | VNAITVAQQQVQRQIEQ [SNF5] | – | 3.14 ± 0.2 | – | 3 ± 0.17
5 | DTTFSDFKEVEDFLHFI [SRB4] | 2.83 ± 0.06 | 2.09 ± 0.05 | 2.23 ± 0.064 | 2.56 ± 0.048
6 | ENGDEDEDEDEDEDDDD [QCR6] | 2.01 ± 0.045 | 1.74 ± 0.038 | 1.92 ± 0.05 | 2.46 ± 0.043
7 | KDDRFVPVRKFKGNNGV [RPN2] | 2.02 ± 0.07 | 2.77 ± 0.09 | 2.94 ± 0.069 | 2.28 ± 0.053
8 | KKHGKTDYFLPKNYSLH [YJL039C/NUP192] | 2.76 ± 0.057 | 2.63 ± 0.069 | 2.71 ± 0.049 | 2.35 ± 0.049
9 | SSSANKLLQLFLTPMDS [YML103C/NUP188] | 1.81 ± 0.052 | 1.61 ± 0.059 | 1.64 ± 0.085 | 1.41 ± 0.042
10 | TFSVYHESTSRTDQYTI [YMR129W/POM152] | 2.63 ± 0.15 | 2.64 ± 0.077 | 2.58 ± 0.098 | 2.62 ± 0.066
11 | MAKRVADAQIQRETYDS [YLR335W/NUP2] | 2.21 ± 0.22 | 2.7 ± 0.14 | 2.08 ± 0.12 | 2.21 ± 0.1
12 | ELPLLSPERFATLGIDP [RPT1] | 2.41 ± 0.13 | 2.75 ± 0.18 | 3.27 ± 0.16 | 2.52 ± 0.19
13 | SLEQRQEVTKFAKANIG [RPN4] | 2.82 ± 0.15 | 2.98 ± 0.24 | 2.83 ± 0.11 | –
14 | VLDHQRAIPFRRFNSSI [RPL17A] | 2.69 ± 0.095 | 2.39 ± 0.14 | 1.67 ± 0.15 | 1.4 ± 0.13
15 | PLLLVGLDKFSNIDIRV [RPS16A] | 1.83 ± 0.073 | 1.76 ± 0.049 | 1.74 ± 0.094 | 2.11 ± 0.044
16 | YQKLFSQFINDHILFTK [SRB8] | 1.94 ± 0.044 | 2.06 ± 0.048 | 2.04 ± 0.065 | 2 ± 0.04
17 | ETNAKPFSFSSATSTTE [YLR335W/NUP2] | 2.18 ± 0.056 | 2.4 ± 0.053 | 2.35 ± 0.053 | 2.26 ± 0.035
18 | EVAIRDVNLDVRIHSIQ [IRR1] | 2.4 ± 0.06 | 2.1 ± 0.061 | 2.49 ± 0.059 | 1.68 ± 0.052
19 | HPYEYEIDHQEYSPEIL [RRP6] | 2.75 ± 0.048 | 2.69 ± 0.042 | 2.83 ± 0.059 | 2.76 ± 0.035
20 | TVLADEFIAHRLGLIPL [RPB3] | 2.4 ± 0.087 | 2.16 ± 0.12 | 2.96 ± 0.047 | 3.12 ± 0.071
21 | KISDDELERILKELSNL [RPB4] | 3.16 ± 0.13 | 3.17 ± 0.091 | – | 3 ± 0.1
22 | ISKQRTFAVILFLIIQC [YMR129W/POM152] | 1.38 ± 0.051 | 1.38 ± 0.067 | 1.32 ± 0.087 | 1.51 ± 0.058
23 | DMPSLRLIDLSGCENIT [GRR1] | 2.33 ± 0.083 | 2.7 ± 0.097 | 2.45 ± 0.094 | 2.65 ± 0.09
24 | HPTTIESLREIPYGPDF [SEC65] | 3.06 ± 0.069 | 3.17 ± 0.06 | 3.01 ± 0.058 | 2.99 ± 0.049
25 | KSLALLGYNFDGSAIED [SNF5] | 3.01 ± 0.084 | 2.99 ± 0.083 | 2.28 ± 0.072 | 2.86 ± 0.07
26 | SNSALFRAVGEGNAQLV [FAS1] | 2.15 ± 0.11 | 2.37 ± 0.11 | 2.27 ± 0.096 | 1.94 ± 0.09
